# T1: recombinant human full-length TrpRS (SY variant) with C-terminal His6-tag
# T1 chain: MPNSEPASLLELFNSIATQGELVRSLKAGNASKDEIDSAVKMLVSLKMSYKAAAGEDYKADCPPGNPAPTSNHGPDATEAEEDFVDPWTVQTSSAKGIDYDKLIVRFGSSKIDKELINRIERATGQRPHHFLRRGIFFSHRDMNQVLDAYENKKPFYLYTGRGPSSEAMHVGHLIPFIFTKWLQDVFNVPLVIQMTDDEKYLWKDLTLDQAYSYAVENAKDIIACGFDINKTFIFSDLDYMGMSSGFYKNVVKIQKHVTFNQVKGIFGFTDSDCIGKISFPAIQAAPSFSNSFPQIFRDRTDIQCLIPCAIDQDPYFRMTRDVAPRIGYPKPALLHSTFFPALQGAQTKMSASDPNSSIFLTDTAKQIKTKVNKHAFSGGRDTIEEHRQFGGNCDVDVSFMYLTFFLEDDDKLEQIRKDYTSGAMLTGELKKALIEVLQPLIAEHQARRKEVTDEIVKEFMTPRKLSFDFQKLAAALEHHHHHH
# B1: PMN elastase (protein)
# chain: IVGGRRARPHAWPFMVSLQLRGGHFCGATLIAPNFVMSAAHCVANVNVRAVRVVLGAHNLSRREPTRQVFAVQRIFENGYDPVNLLNDIVILQLNGSATINANVQVAQLPAQGRRLGNGVQCLAMGWGLLGRNRGIASVLQELNVTVVTSLCRRSNVCTLVRGRQAGVCFGDSGSPLVCNGLIHGIASFVRGGCASGLYPDAFAPVAQFVNWIDSIIQ
# B2: T2-TrpRS (SY variant, without 6-His tag) produced by E. coli expression of the vector of SEQ ID NO: 70 (pAS-001) (other)
# chain: SAKGIDYDKLIVRFGSSKIDKELINRIERATGQRPHHFLRRGIFFSHRDMNQVLDAYENKKPFYLYTGRGPSSEAMHVGHLIPFIFTKWLQDVFNVPLVIQMTDDEKYLWKDLTLDQAYSYAVENAKDIIACGFDINKTFIFSDLDYMGMSSGFYKNVVKIQKHVTFNQVKGIFGFTDSDCIGKISFPAIQAAPSFSNSFPQIFRDRTDIQCLIPCAIDQDPYFRMTRDVAPRIGYPKPALLHSTFFPALQGAQTKMSASDPNSSIFLTDTAKQIKTKVNKHAFSGGRDTIEEHRQFGGNCDVDVSFMYLTFFLEDDDKLEQIRKDYTSGAMLTGELKKALIEVLQPLIAEHQARRKEVTDEIVKEFMTPRKLSFDFQ
# notes: the entries describe two such monomers associating non-covalently into a dimer; also called T2-TrpRS product
# How the values were obtained:
# [1] = biological target: T1, recombinant human full-length TrpRS (SY …)
# [2] = biological target: the molecule itself; test: SDS-PAGE, unheated against heated samples; band at roughly 86 kDa disappears on heating, band at roughly 43 kD remains
Protein,cleavage seen on 12.5% SDS-polyacrylamide gels [1],binding result [2]
B1,cleavage of full-length TrpRS (SY variant) by PMN elastase generated a major fragment of about 46 kDa (SEQ ID NO: 25) and a minor fragment of about 43.5 kDa (SEQ ID NO: 24),–
B2,–,binds

# — patent US20060024287A1 (published 2006)
